Data: publication PMC5665596

How the values were obtained:
[1] = biological target: MotS_(D30A) (B. subtilis); assay: high-speed atomic force microscopy
MotS (B. subtilis) = assay: high-speed atomic force microscopy

Row | percent of particles with an unfolded conformation of MotSC [1] | stoichiometry N (MotS (B. subtilis)) | Substance
1 | 18% | – | MotS_(D30A) (natural protein)
2 | – | 2 | MotS (natural protein)
